Assay results as given in the nanobody polyreactivity screen of Harvey et al. (2022).

Test: yeast display, Sf9 membrane polyspecificity reagent, FACS + sequencing; frameworks hold sequencing errors
Method in brief: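 Sorting gates, low and high (top ~1%), were placed on anti-HA fluorescence to track expression and on streptavidin fluorescence to track reagent binding. A clone's polyreactivity label is taken from the gate it came out of. The reagent was 10% biotinylated, detergent-solubilized Sf9 membrane, applied for 1 hour at 4 °C to galactose-induced yeast display cells.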

| Sequence | polyreactivity (PSR sort gate) |
| --- | --- |
| QVQLVESGGGLVQAGGSLRLSCAASASTFVSNAMGWYRQAPGKERELVAAISKSGGSTYYADSVKGRFTISRDNAKNTVYLEMNSLKPEDTAVYYCSKYTAISFYGQYDYWGQGTQVTVSS | high polyreactivity |
| QVQLVESGGGLVQAGGSLRLSCAASGSTFVLYAMGWYIQAPGKERELVAAIDSSGGSTYYADSVKGRFTISRDNAKNTVYVQMNSLKPEDTAVYYCAARFKGLLGYWGQGTQVTVSS | high polyreactivity |
| QVQLVESGGGLVQAGGSLRLSCAASGSTFDTNAMGWYRQAPGKERELVAAISASGGSTYYADSVKGRFTISRDNAKNTVYLQMNSLKPEDTAVYDCAAKTRGQQRKFDYWGQGSQVTVSS | high polyreactivity |
| QVQLVESGGGLVQAGGSLRLSCAASGSIFVSYAMGWYRQAPGKERELVAAITSIGTRTNYADSVKGRFTISRDNAKNTVYLPMNSLKPEDTAVYYCNAPRFWSRHGLRDYWGQGTQVTVSS | high polyreactivity |
| QVQLLESGGGLVQAGGSLRLSCAASGRIYLGYALGWYRQAPGKERELVAAITSSGGYTYYADSVKGRFTISLDNAKNTVYLQMNSLKPEDTAVYYCNVYRFGWWYTNDYWGQGTQVTVSS | high polyreactivity |
| QVQLVESGGGLVQAGGSLRLSCAASGNIFADYVMGWYRQAPGKERELVAAIDKSGGRTYYADSVKGRFTISRDNEKNNVYLQMNILKPEDTAVYYCSAYDRYRRMDYWGQGTQVTVSS | high polyreactivity |
| QVQLVESGGGLVQAGGSLRLSCAASGIIIGSNAMGWYRQAPGKERELVAAISDSGGSTYYADSVKGRFTISRDNAKNTVYLQMNSLKPEDTAVYYCAAAGRGSWTTYRFDYWGQGTQVTVSS | high polyreactivity |
| QVQLVESGGGLVQAGGSLRLSCAASGLIFGPYAMGWYRQAPGKERELDAAITSSGGSTYNADSVKGRFTISRDNAKKSVYLQMNSLKPEDTAVYYCAARGSPRYYARYNYWGQGTQVTVSS | low polyreactivity |
| QFQLVESGGGLVQAGGSLRLSCAASGIIFLENAMGWYRQAPGKEREFVAAISRSGGITYYADSVKGRFTISRDNAKNTVYLQMNSLKPEDTAVYYCAAVGRDRYRHSPQPLYDYWGQGTQVTVSS | low polyreactivity |
| QVQLVESGGGLVQAGGSLRLSCAASGRTFHWYTLGWYRQAPGKEREFVAGINWSGARTYYADSVKGRFTISRDNAKNTVYLQMNSLKPEDTAVYYCNKRDRYRLYGYNYWGQGTQVTVSS | high polyreactivity |
| QVQLVESGGGLVQAGGSLRLSCAASGFTVHDYAMGWYRQAPGKERELVAAISFSGGRTYYADSVKGRFSISRDNAKNTVYLQMNSLKPEDTAVYYCNAKGQRIKRWRGYWGQGTQVTVSS | high polyreactivity |
| QVQLVESGGGLVQAGGSLRLSCAASGRIFRRNAMGWYRQAPGKERDLVAAITYSGTRTYYADSVKGRFTISRDNAKITVYLQMNSLKPEDTAVYYCNAGVGYFVGTYYGFLPYDYWGQGTQVTVSS | high polyreactivity |
| QVQLVESGGGLVQAGGSLRLSCAASGSIFKYYAMGSSRQAPGKERELVAAISTGGTTNYADSVKGRFTISRDNAKNTVYLQMNSLKPEDTAVYYCNRDYLVRSRYKYYYWGQGTQVTVSS | low polyreactivity |
| QVQLVESGGGLVQAGGSLRLSCAASGRTFGVNAMGWYRQAPGKERELVAAINWSADRTYYADSVKGRFTISRDNAKNTVYLQMNSLKPEDTAVYYCAVTQRWYWSYYGSDPSQYGYWGQGTQVTVSS | low polyreactivity |
| QDQLVESGGGIVQAGGSLRLSCAASGFIFYTYAMGCYRQAPGKESELVAAISSRGTRTYYADSVKGRFTISRDNAKNTVFLQMNSLKPEDTAVYYCAAVSYSYEYPSFDMGYWGQGTQVTVSS | high polyreactivity |
| QVQLVESGGGLVLAGGSLRLSCAASGSISTNYAMGWYRQAPGKERELVAAISDSSGSTYYADSVKGRFTISRDNAKNIVYLQMNSLKPEDTAVYYCNADSQGGRDVNYDYEYYYWGQGTQVTVSS | low polyreactivity |
| QVQLVESGGGLVQAGGSLRLICAASGSTFGWYAMGWYRQAPGQERELVAAISWGGGSTYYADSVKGRFTISRDNAKNTVYLQMNSLKPEVTAVYYCAKVPLTYSRSGYEYDYWGQGTQVTVSS | low polyreactivity |
